Data published in the DeepSol protein solubility set.

Assay: soluble on expression in E. coli; label from the status in PepcDB or PDB records

Row | Sequence | soluble on expression in E. coli
1 | MGSDKIHHHHHHMFNGRPFPVDAFPKIIRNAIYEVEQHTQAPQGLIAASALGVISLACQNRIDVCRLNNLRGPVSLFLMTLAESGERKSTVDKLLMKPLYQLEEDLFEKYTHDLTAWRNDEAIFNIEKKALMSKLKSDIRRNKDHLATNERLKELLTTNPKAPVRFKFLFNDATPAAIKAHLCGHWRSVGIMSDEAGIIFNGYTLNELPFINKMWDGSIFTVERKNEPEKLIRDARITLSLMVQPNVFKGYIDRKGDMAKGIGFFARCLMCQPASTQGNRKISNPIFSNEHLPVFHQRLMEIVNESIIKINENNRICLRFSAEAERHWIEFYNQVESEMRMIGLLYDFKDYASKMAENMARLAALLHYFSGDGGDISVTAVKAAVEIVAWYIEEYIRLFSKKEEFSLDVSEADELYCWIKDYCTQKFSSCIKKNIILQFGPNKFRNRDKANELIRILISQNKIFISSWGKTKIINITHCVF | not soluble
2 | MAHHHHHHMYKLVLIRHGESTWNKENRFTGWVDVDLTEQGNREARQAGQLLKEAGYTFDIAYTSVLKRAIRTLWHVQDQMDLMYVPVVHSWRLNERHYGALSGLNKAETAAKYGDEQVLVWRRSYDTPPPALEPGDERAPYADPRYAKVPREQLPLTECLKDTVARVLPLWNESIAPAVKAGKQVLIAAHGNSLRALIKYLDGISDADIVGLNIPNGVPLVYELDESLTPIRHYYLGDQEAIAKAQAAVAQQGKSAA | soluble
3 | MIKLSNITKVFQQGTRTIQALNNVSLHVPAGQIYGVIGASGAGKSTLIRCVNLLERPTEGSVQVGGQELTTLSESELTKARRQIGMIFQHFNLLSSRTVFGNVALPLELDNTPKEEIKRRVTELLDLVGLGDKHDSYPANLSGGQKQRVAIARALASNPKVLLCDEATSALDPATTRSILELLKDINRRLGLTILLITHEMDVVKRICDCVAVISNGELIEQDTVSEVFSHPKTPLAQKFIQSTLHLDIPEDYQARLKASPETDSVPMLRMEFTGQSVDAPLLSETARRFNVNNNIISAQMDYAGGVKFGIMLTEMHGTQEETQAAIAWLQDHHVKVEVLGYV | not soluble
4 | MNPVKNRSEVLFIYDVKWANPNGDPLDENRPRFDEETSRLFVTDVRLKRTVRDYLAECYDETLWVTGEAVVPEDRVKELGIKDVNDACQKCIDIRLFGAVIPQSKKGAMESSITGPVQFRYGTSLHRVKLMTIQGTAAFATENSKQRSFREDQVVPYALIAFYGVINQNSAKFTGLTEEDVSKLLEGIWMGTKNLITRSKMEHNPRLLMRVVYKEGVNYHSGELDYLVKVVSEKEDEEIRDISELKLDVTELKQVLESLKDKIERIEYSVDNRLKLAENGEEKPFEEIFGGFQLVKLEW | not soluble
5 | MRMVDIISKKRDGKALSTEEIQFFIDGYTNGEIPDYQASALAMAIFFQDMNDQERADLTMAMVGSGDTIDLSEIEGIKVDKHSTGGVGDTTTLVLAPLVAAVGVPVAKMSGRGLGHTGGTIDKLESIEGFHIELDKKDFIDLVNRDKVAVIGQSGNLTPADKKMYALRDVTGTVNSIPLIASSIMSKKIAAGADAIVLDVKTGAGAFMKTDEDAENLAHAMVRIGNNVGRNTMAVISDMSQPLGEAIGNALEVKEAIDTLKGQGPEDLTELVLVLGSQMVVLAKQAETLDEARAKLIEVIENGAALEKFKTFLSNQGGDASIVDHPEKLPQAKYQIEVPAKTSGFVSQIVADEIGIAAMILGAGRATKEDEINLAVGLMLRKKVGDAVKEGESLVTIFADQEDVENVKAKIYENIQISDHAIAPTLVHKVITE | not soluble
6 | MMSISQLLGCISKQVDGQYIAQYEELTLRSVFQPIYKKDLSIIGLEALVRISTADGSMIRPDLFFQSPSISEHVQLNVERLSRLIHIKNFGQSRYRNKKLFLNVLPRAAEMLAKDLSYSHLLKQVICEADLCREQIVMELVELSAGDESFLYKATKELSDGGFKLAIDDYGINASTIERVKCVRPDIIKMDRSLLLKYEDGDFSALIEALALAKELSSKTVIEGIETEHQLNLMKKLGFDMYQGYLLAMPQTLEMYEEAKTA | not soluble
7 | SLRRAAKAEAQAWLLTERLAQAEERHRLLEDQSATQIELIKAQAAQSANAIAEQLIKRADENAKSRERLAEARLEAQLKPVAETLAKFEAQVTAVEKARAEETGGLKAQITALLEASTATQAEARKLSAALRRGAGVQGRWGEQTLRNVLEAAGLNSRFDFQEQFSVDSEEGRRRPDVKVTLPGGGVFVIDAKCSLNAFLEAQDATDEVLREAAMARHAQSVRTHMQGLSSKAYWDQFAGEGSPDFVAMFVPGDGFLAAALDRLPELMAEAMDRRVVLVTPTTLFALCKAVAYGWRAEDQAKNAARIVEVGRELYKRVSVMGAHAGAMGKALESAVGKYNQFVGSLESQVLTQARRFEDLSVDHEGKEIPEPPMVDQAVRPLTKLKAVGQSPTLTLGNDTPT | soluble
8 | MGHHHHHHSHMTLRCLEPSGNGGEGTRSQWGTAGSAEEPSPQAARLAKALRELGQTGWYWGSMTVNEAKEKLKEAPEGTFLIRDSSHSDYLLTISVKTSAGPTNLRIEYQDGKFRLDSIICVKSKLKQFDSVVHLIDYYVQMCKDKRTGPEAPRNGTVHLYLTKPLYTSAPSLQHLCRLTINKCTGAIWGLPLPTRLKDYLEEYKFQV | not soluble
9 | MPVLTSGQQERKSKQRKIRNSEYYDMEGTFDRLYAESKKDKTFNHLMEIIESEENIKLAYRTIKKNTGSDTSGVDKRTIADLAKLSEEEYVRLIRKQFSNYHPGPVRRVEIPKPNGKTRPLGIPTIVDRIVQQCILQVMEPICEAKFSENSNGFRPNRSAETAIAQCMRLIQVQHLYHVVDLDIKGFFDNISHTKLIRQIWALGIRDKKLLCIIKEMLKAPVVLPNGEKTYPARGTPQGGILSPLLANIVLNELDWWIASQWEEMPTKTKFKTRSNAQGTEIKSHAYRALRRSRLKEMHAVRYADDFKIFCATHEDAVRAYKATELWLKDRLGLEISPDKSKVVNLKRQYSDFLGFKLKVRKKGKKYVVRSHMSDKAYKKAHEKVSEEVKKLAYSSDDNAQFMQLQKYNSVVAGLHEYYCISTEVSHDFSRLAFSINKQLRNRLKGDLSKKGQLRNGFIKEKYGASRQMRFLHGRPVVPLGYVQSKNAQHKRKSINKYTVKGREQIHKNLAIDTATMLWLMRNPVKGRTIEYADNRISLYAAQYGKCAVTGIPMNSHDIHCHHKVPVSNGGSDEYANLILVSKAVHILIHASSEPTIEKYLKSLNLDNKQIEKLNKLRSMAEMPPIIL | not soluble
10 | FPSQDQYLAGLLETPEQKIRAYVLFAHCFTCGKDVAAASRISRFLVQHGFAVFRFDFTGLGNSDGDFANTNFSSNTEDLVSAAYFLEQNYEAPQLLIGHSLGGAAVLAMASQLPKVKGVVTIGAPYEASHVIHNFDAHLEKIDQSGSAKVSLGSREFTIKKQFLDDLRNQTTEHIQHLNKALLVLHSPIDLTVDISDAEKIYKAAKHPKSFVSLDTADHLLSKSIDSEYVAQTISGWASRYIP | not soluble
11 | MAEMSEKTPELGDALRVGARVLVRRPSETAATGAAVEDCADLVPAQDRGHEWAPVPRWAVALDDGRLVFADTEDLTVNPSPGAPEGEIGKAVEPK | not soluble
12 | FQVPMSNLLTVHQNLPALPVDATSDEVRKNLMDMFRDRQAFSEHTWKMLLSVCRSWAAWCKLNNRKWFPAEPEDVRDYLLYLQARGLAVKTIQQHLGQLNMLHRRSGLPRPSDSNAVSLVMRRIRKENVDAGERAKQALAFERTDFDQVRSLMENSDRCQDIRNLAFLGIAYNTLLRIAEIARIRVKDISRTDGGRMLIHIGRTKTLVSTAGVEKALSLGVTKLVERWISVSGVADDPNNYLFCRVRKNGVAAPSATSQLSTRALEGIFEATHRLIYGAKDDSGQRYLAWSGHSARVGAARDMARAGVSIPEIMQAGGWTNVNIVMNYIRNLDSETGAMVRLLEDGD | soluble
13 | MSSRQGGKMKPLKQKKKQQQDLDPEDIAFKEKQKADAAAKKALMANMKSGKPLVGGGIKKSGKK | soluble
